# Measurements: US20230250154
# Experiments:
# [1] = test system: T1, Tagged wild-type human A2M
# T1 sequence: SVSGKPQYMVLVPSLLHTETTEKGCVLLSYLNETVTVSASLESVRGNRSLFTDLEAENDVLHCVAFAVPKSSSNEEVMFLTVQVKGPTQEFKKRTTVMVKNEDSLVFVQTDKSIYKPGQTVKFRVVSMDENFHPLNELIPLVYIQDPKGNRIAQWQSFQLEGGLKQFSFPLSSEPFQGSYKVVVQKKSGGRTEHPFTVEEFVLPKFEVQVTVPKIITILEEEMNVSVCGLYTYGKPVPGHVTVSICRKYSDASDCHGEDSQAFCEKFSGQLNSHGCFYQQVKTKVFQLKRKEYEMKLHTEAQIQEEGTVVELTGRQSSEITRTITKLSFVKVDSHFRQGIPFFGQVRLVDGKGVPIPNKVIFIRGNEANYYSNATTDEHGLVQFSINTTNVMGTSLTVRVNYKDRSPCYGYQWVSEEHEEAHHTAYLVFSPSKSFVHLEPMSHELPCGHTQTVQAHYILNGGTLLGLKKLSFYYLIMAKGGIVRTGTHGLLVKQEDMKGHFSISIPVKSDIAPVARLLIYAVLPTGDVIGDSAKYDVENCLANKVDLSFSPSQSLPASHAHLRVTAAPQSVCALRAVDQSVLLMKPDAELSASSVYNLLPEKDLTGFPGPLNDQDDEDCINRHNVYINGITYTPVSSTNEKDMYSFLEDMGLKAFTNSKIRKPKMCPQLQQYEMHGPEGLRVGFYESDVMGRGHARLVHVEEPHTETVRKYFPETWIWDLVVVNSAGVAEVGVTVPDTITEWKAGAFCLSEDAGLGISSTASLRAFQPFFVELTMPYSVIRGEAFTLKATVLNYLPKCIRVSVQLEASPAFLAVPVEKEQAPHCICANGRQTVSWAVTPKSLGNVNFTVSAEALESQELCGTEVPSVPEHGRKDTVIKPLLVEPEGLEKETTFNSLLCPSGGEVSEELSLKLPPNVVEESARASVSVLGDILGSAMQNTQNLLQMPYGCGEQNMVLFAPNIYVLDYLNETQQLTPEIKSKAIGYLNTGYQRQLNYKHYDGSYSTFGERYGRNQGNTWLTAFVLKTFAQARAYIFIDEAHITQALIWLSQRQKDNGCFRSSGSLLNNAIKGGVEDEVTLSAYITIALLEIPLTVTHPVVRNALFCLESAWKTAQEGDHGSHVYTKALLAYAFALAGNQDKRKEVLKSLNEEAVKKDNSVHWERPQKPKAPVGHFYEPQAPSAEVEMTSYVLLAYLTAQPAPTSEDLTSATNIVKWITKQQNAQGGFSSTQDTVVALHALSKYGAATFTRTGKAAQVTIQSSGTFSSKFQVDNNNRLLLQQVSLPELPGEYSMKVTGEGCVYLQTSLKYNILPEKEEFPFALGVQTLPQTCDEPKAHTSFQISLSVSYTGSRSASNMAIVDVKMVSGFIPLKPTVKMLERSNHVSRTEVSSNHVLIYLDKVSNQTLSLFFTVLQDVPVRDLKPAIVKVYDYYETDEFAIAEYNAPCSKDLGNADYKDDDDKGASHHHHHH
# [2] = test system: the four selected A2M variants
substance,measurement,setting,value
chymotrypsin,slope of FTC-casein digestion (fluorescent proteolysis assay),[1],"the variants are all capable of inhibiting various proteases, including trypsin and chymotrypsin approximately equally, to the wild-type A2M"
same,slope of FTC-casein digestion (fluorescent proteolysis assay),[2],"the variants are all capable of inhibiting various proteases, including trypsin and chymotrypsin approximately equally, to the wild-type A2M"
